Molecular target: the molecule itself
Experiment: cryo-EM structure

B1: Dark protein, full-length (residues 1–1440) (natural protein, D. melanogaster, UniProt Q7KLI1 1-1440, looked up)
chain: MDFETGEHQYQYKDILSVFEDAFVDNFDCKDVQDMPKSILSKEEIDHIIMSKDAVSGTLRLFWTLLSKQEEMVQKFVEEVLRINYKFLMSPIKTEQRQPSMMTRMYIEQRDRLYNDNQVFAKYNVSRLQPYLKLRQALLELRPAKNVLIDGVLGSGKTWVALDVCLSYKVQCKMDFKIFWLNLKNCNSPETVLEMLQKLLYQIDPNWTSRSDHSSNIKLRIHSIQAELRRLLKSKPYENCLLVLLNVQNAKAWNAFNLSCKILLTTRFKQVTDFLSAATTTHISLDHHSMTLTPDEVKSLLLKYLDCRPQDLPREVLTTNPRRLSIIAESIRDGLATWDNWKHVNCDKLTTIIESSLNVLEPAEYRKMFDRLSVFPPSAHIPTILLSLIWFDVIKSDVMVVVNKLHKYSLVEKQPKESTISIPSIYLELKVKLENEYALHRSIVDHYNIPKTFDSDDLIPPYLDQYFYSHIGHHLKNIEHPERMTLFRMVFLDFRFLEQKIRHDSTAWNASGSILNTLQQLKFYKPYICDNDPKYERLVNAILDFLPKIEENLICSKYTDLLRIALMAEDEAIFEEAHKQVQRFDDRVWFTNHGRFHQHRQIINLGDNEGRHAVYLHNDFCLIALASGQILLTDVSLEGEDTYLLRDESDSSDILRMAVFNQQKHLITLHCNGSVKLWSLWPDCPGRRHSGGSKQQLVNSVVKRFIGSYANLKIVAFYLNEDAGLPEANIQLHVAFINGDVSILNWDEQDQEFKLSHVPVLKTMQSGIRCFVQVLKRYYVVCTSNCTLTVWDLTNGSSNTLELHVFNVENDTPLALDVFDERSKTATVLLIFKYSVWRLNFLPGLSVSLQSEAVQLPEGSFITCGKRSTDGRYLLLGTSEGLIVYDLKISDPVLRSNVSEHIECVDIYELFDPVYKYIVLCGAKGKQVVHVHTLRSVSGSNSHQNREIAWVHSADEISVMTKACLEPNVYLRSLMDMTRERTQLLAVDSKERIHLIKPAISRISEWSTITPTHAASNCKINAISAFNDEQIFVGYVDGVIIDVIHDTALPQQFIEEPIDYLKQVSPNILVASAHSAQKTVIFQLEKIDPLQPNDQWPLMMDVSTKYASLQEGQYIILFSDHGVCHLDIANPSAFVKPKDSEEYIVGFDLKNSLLFLAYENNIIDVFRLIFSCNQLRYEQICEEEIAQKAKISYLVATDDGTMLAMGFENGTLELFAVENRKVQLIYSIEEVHEHCIRQLLFSPCKLLLISCAEQLCFWNVTHMRNNQLEREQKRRRSRRHKQHSVTQEDAVDAAPIAADIDVDVTFVADEFHPVNRGTAELWRNKRGNAIRPELLACVKFVGNEARQFFTDAHFSHFYAIDDEGVYYHLQLLELSRLQPPPDPVTLDIANQYEDLKNLRILDSPLMQDSDSEGADVVGNLVLEKNGGVARATPILEEASS
stoichiometry N: 16
